# Reference: patent publication US20250011363A1, “OPTIMIZED SHORTENED PEPTIDE THAT BINDS TO ACETYLCHOLINE RECEPTOR, AND USE THEREOF” (SKINMED CO., LTD., priority 2021, published 2025)
# Target: acetylcholine receptor
# Assay: SPR, AchR immobilized on chip, peptide 10 uM
row,Binding affinity (RU),Binder
1,57 RU,RWFRK [5mer-465]
2,83 RU,RRIYR [5mer-467]
3,76 RU,RSQLR [5mer-459]
4,74 RU,RLQQR [5mer-460]
5,52 RU,KWYTK [5mer-463]
6,57 RU,RGVTR [5mer-464]
7,74 RU,KQLLK [5mer-461]
8,59 RU,RGQYK [5mer-457]
9,65 RU,RRFLK [5mer-458]
10,69 RU,RWQSK [5mer-462]
11,53 RU,RRVRK [5mer-466]

# More lines, now with the values behind:
row,Binder,Binding affinity (RU)
1,KGRCR [5mer-157],78 RU
2,RLVCK [5mer-456],52 RU
3,KWRSK [5mer-165],56 RU
4,KSLCK [5mer-163],61 RU
5,RSITR [5mer-154],54 RU
6,RGVSK [5mer-452],82 RU
7,RSIRR [5mer-160],53 RU
8,KSFQR [5mer-166],55 RU
9,KGVCR [5mer-453],68 RU
10,RWLYK [5mer-455],61 RU
11,RQVLR [5mer-454],77 RU
12,RSIQK [5mer-153],72 RU
13,KQFRK [5mer-167],64 RU
14,RGQRR [5mer-159],73 RU
15,KSICK [5mer-164],54 RU
16,RGYQR [5mer-162],51 RU
17,KGLRK [5mer-156],85 RU
18,RWQTK [5mer-158],65 RU
19,KRYLR [5mer-155],57 RU
20,KWVTK [5mer-161],52 RU
